Experiments:
Experiment in all cases: indirect ELISA, VLP coated at 2 μg/mL, antibody at 10 ng/mL
[1] = target: T1, HPV52 VLP (Human papillomavirus type 52, UniProt Q05138 27-529)
T1 construct: also called HPV52完整VLP蛋白
T1 sequence: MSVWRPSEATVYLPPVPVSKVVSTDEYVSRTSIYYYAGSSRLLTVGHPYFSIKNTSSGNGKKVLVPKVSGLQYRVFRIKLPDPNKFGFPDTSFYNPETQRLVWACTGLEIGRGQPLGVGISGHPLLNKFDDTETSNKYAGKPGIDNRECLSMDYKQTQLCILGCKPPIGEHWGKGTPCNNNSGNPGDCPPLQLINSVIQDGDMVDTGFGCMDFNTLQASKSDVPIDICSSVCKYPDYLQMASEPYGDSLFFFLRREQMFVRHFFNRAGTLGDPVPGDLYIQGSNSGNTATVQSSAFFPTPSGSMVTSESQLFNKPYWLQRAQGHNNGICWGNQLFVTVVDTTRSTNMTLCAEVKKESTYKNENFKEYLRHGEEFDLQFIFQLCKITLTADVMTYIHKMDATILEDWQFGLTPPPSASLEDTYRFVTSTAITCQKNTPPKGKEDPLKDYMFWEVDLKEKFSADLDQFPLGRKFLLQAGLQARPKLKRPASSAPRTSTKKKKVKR

[2] = target: T2, HPV31 VLP (Human papillomavirus type 31, UniProt P17388 1-504)
T2 construct: also called HPV31完整VLP蛋白
T2 sequence: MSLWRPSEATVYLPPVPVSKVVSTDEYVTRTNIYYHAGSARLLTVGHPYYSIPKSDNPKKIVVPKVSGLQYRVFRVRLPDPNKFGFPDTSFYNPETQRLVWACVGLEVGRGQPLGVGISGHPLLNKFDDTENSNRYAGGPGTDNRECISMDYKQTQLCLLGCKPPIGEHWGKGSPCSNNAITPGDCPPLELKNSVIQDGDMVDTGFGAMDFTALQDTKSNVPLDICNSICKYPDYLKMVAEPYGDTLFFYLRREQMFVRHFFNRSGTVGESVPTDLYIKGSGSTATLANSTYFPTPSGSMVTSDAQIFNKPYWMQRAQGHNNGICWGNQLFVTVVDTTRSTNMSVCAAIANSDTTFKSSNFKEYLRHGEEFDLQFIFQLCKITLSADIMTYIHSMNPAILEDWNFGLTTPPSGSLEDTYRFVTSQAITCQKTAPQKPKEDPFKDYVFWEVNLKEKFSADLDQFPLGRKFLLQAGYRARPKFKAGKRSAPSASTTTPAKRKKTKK

[3] = target: T3, HPV45 VLP (Human papillomavirus type 45, UniProt P36741 27-539)
T3 construct: also called HPV45完整VLP蛋白
T3 sequence: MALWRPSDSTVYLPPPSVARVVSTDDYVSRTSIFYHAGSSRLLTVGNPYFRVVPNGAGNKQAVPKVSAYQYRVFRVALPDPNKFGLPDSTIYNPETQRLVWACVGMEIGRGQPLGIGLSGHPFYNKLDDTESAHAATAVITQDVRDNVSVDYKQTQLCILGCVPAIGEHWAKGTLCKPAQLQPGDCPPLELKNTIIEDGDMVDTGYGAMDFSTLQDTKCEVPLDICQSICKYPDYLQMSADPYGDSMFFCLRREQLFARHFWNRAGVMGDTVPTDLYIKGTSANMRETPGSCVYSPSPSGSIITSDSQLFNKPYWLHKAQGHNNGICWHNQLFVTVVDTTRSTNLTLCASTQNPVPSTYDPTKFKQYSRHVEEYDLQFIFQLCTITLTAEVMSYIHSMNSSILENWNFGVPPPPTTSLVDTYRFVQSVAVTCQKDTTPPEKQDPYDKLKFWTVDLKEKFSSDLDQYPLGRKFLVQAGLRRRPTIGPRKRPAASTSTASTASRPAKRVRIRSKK

[4] = target: T4, HPV56 VLP (Human papillomavirus type 56, UniProt P36743 36-534)
T4 construct: also called HPV56完整VLP蛋白
T4 sequence: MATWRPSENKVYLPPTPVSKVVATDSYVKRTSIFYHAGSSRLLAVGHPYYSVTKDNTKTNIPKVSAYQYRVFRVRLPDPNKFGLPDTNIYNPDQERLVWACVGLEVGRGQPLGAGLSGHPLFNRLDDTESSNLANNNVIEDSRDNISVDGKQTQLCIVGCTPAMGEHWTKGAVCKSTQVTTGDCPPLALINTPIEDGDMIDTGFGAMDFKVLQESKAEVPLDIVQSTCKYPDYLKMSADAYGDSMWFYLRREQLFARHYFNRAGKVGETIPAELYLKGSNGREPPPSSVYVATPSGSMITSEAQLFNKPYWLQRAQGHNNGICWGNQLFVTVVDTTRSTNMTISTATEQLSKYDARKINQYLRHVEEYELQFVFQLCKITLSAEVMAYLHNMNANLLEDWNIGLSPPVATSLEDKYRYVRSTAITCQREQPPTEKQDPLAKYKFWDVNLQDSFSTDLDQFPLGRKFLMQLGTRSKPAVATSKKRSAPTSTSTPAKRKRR

[5] = target: T5, HPV16 L1 VLP蛋白 (Human papillomavirus type 16)
T5 construct: Intact virus-like particle of L1; also called HPV16 VLP; HPV16 VLP蛋白

[6] = target: T6, HPV59 VLP (Human papillomavirus type 59)
T6 construct: also called HPV59完整VLP蛋白

B1: HPV 16 R001 (antibody, V domains shown)
VH: QSVKESEGRLVTPGTPLTLTCTASGFTMSRYHMTWVRQAPGKGLEWIGIIYARNSDTYYANWAKGRFTISKTSTTVDLKITSPTIEDTATYFCARVDSDSSGAFDRLDLWGQGTLVTVSS
VL: DPMLTQTAASVEVAVGGTVTIKCQASQSIGGYLSWYQQKPGQRPKLLIYRASTLASGVPSRFKGSGSGTEYTLTFSGVECADAAAYYCQQGYTSSDINNAFGGGTEVVVK
notes: An HRP-labelled form served as detection antibody in the sandwich ELISA; also called HPV16.001; 单克隆抗体HPV 16 R001
OD450-blank [1]: 0.003 OD450 | OD450-blank [2]: 0.002 OD450 | OD450-blank [3]: 0.002 OD450 | OD450-blank [4]: 0.003 OD450 | OD450-blank [5]: 2.53 OD450 | OD450-blank [6]: 0 OD450

— patent CN112125972A (SINOCELLTECH LTD, dated 2020)
